Results: the supplement of paper PMC10567573

B1: DYRK1B (parent)
chain: YQGPGTRRLQEVLGVQTGGPGGRR

Variants of: B1
Assay: protein stability index of a GFP-peptide fusion (GPS, HEK-293T) (PSI 1-6); higher = more stable
Conditions: c terminus: a fixed tail appended
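Further: lentivirally expressed fusions sorted by FACS into six bins by GFP to DsRed ratio, PSI derived from sequencing read proportions per bin multiplied by bin number.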

Protein stability index, by site and new letter:
V15: W 3.1 | Y 2.92
Q16: A 2.81 | C 2.1 | D 4.06 | E 3.39 | F 2.01 | G 3.42 | H 3.75 | I 1.74 | K 3.55 | L 2.96 | M 2.98 | N 3.32 | P 2.77 | R 3.09 | S 2.82 | T 2.78 | V 2.61 | W 2.26 | Y 3.19
T17: A 3.27 | C 2.95 | D 3.45 | E 3.44 | F 2.85 | G 3.66 | H 3.69 | I 2.75 | K 3.24 | L 3.3 | M 3.24 | N 3.83 | P 3.5 | Q 3.47 | R 2.8 | S 2.77 | V 3.62 | W 2.49 | Y 3.11
G18: A 3 | C 3.07 | D 4.02 | E 3.52 | F 3.23 | H 3.19 | I 2.4 | K 2.6 | L 2.74 | M 2.79 | N 3.34 | P 2.84 | Q 3.68 | S 3.15 | T 3.51 | V 3.06 | W 2.81 | Y 2.94
G19: A 3.34 | C 2.87 | D 3.58 | E 3.63 | F 3.33 | H 2.98 | I 2.85 | K 3.43 | L 2.81 | M 2.75 | N 3.05 | P 3.66 | Q 3.05 | R 2.47 | S 2.81 | T 3.44 | V 3.19 | W 2.14 | Y 2.9
P20: A 3.22 | C 3.49 | D 3.51 | E 3.3 | F 2.32 | G 3.15 | H 2.81 | I 2.84 | K 3.83 | L 2.82 | M 3.02 | N 3.1 | Q 3.16 | R 3.39 | S 3.28 | T 3.32 | V 2.76 | W 2.02 | Y 2.77
G21: A 3.25 | C 2.72 | D 3.88 | E 3.13 | F 2.93 | H 3.33 | I 3.15 | K 2.74 | L 3.18 | M 3.48 | N 3.04 | P 3.17 | Q 3.4 | R 3.32 | S 3.04 | T 2.98 | V 2.2 | W 2.17 | Y 2.68
G22: A 3.13 | C 2.87 | D 3.39 | E 3.4 | F 2.17 | H 3.29 | I 3.75 | K 2.51 | L 2.94 | M 2.67 | N 3.44 | P 3.48 | Q 3.48 | R 2.7 | S 3.05 | T 3.35 | V 2.95 | W 3.01 | Y 2.63
R23: A 4.05 | C 2.87 | D 3.8 | E 3.32 | F 2.37 | G 3.01 | H 3.1 | I 2.75 | K 2.55 | L 3.12 | M 3.27 | N 3.29 | P 3.26 | Q 3.38 | S 2.59 | T 3.23 | V 2.88 | W 2.22 | Y 2.67
R24: A 3.23 | C 3.18 | D 3.51 | E 3.67 | F 2.49 | G 3.4 | H 3.17 | I 3.75 | K 3.12 | L 2.87 | M 2.5 | N 3.43 | P 3.45 | Q 3.06
